{
  "source": "IntAct's records for PubMed 21102411",
  "parents": {"B1": {"name": "Peroxisomal biogenesis factor 19 (Homo sapiens), P40855 (parent)", "chain": "MAAAEEGCSVGAEADRELEELLESALDDFDKAKPSPAPPSTTTAPDASGPQKRSPGDTAKDALFASQEKFFQELFDSELASQATAEFEKAMKELAEEEPHLVEQFQKLSEAAGRVGSDMTSQQEFTSCLKETLSGLAKNATDLQNSSMSEEELTKAMEGLGMDEGDGEGNILPIMQSIMQNLLSKDVLYPSLKEITEKYPEWLQSHRESLPPEQFEKYQEQHSVMCKICEQFEAETPTDSETTQKARFEMVLDLMQQLQDLGHPPKELAGEMPPGLNFDLDALNLSGPPGASGEQCLIM", "partner": "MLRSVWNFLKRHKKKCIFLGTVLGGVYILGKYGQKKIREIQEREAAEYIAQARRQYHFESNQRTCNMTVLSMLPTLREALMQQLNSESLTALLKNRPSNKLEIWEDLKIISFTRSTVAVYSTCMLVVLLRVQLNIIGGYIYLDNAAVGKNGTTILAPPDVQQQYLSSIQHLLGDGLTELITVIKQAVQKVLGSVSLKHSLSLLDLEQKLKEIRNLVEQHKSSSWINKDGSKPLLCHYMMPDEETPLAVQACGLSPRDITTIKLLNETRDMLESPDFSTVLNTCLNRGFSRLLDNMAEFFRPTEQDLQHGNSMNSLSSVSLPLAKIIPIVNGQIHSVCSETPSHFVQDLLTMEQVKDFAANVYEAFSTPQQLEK"}, "B2": {"name": "Peroxisomal biogenesis factor 19 (Homo sapiens), P40855 (parent)", "chain": "B1 chain", "partner": "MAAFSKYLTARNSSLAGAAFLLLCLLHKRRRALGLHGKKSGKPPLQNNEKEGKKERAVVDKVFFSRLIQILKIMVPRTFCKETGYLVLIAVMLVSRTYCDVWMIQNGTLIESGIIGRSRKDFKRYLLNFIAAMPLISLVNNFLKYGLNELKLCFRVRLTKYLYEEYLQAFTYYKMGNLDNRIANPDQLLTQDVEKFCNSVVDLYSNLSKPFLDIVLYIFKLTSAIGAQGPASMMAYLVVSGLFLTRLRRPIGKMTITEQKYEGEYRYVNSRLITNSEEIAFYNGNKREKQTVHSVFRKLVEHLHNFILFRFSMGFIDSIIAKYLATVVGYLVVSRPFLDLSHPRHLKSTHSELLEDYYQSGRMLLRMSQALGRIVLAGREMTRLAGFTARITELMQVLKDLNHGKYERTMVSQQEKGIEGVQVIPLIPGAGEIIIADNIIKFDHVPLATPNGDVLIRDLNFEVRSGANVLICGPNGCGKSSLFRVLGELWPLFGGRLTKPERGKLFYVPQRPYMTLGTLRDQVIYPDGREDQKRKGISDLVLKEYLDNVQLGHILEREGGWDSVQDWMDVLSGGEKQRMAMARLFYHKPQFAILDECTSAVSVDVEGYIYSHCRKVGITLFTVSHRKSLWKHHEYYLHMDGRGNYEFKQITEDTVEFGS"}},
  "data": [
    {"variants_of": "B1", "details": "with pex3_human PEX3, P56589", "values": [
      {"variant": "D28A", "effect of a mutation on the interaction": "decreasing interaction"}
    ]},
    {"variants_of": "B1", "details": "with pex3_human PEX3, P56589", "remark": "another data set of the same source", "values": [
      {"variant": "L21A", "effect of a mutation on the interaction": "disrupting interaction"}
    ]},
    {"variants_of": "B1", "details": "with pex3_human PEX3, P56589", "remark": "another data set of the same source", "values": [
      {"variant": "L21A", "effect of a mutation on the interaction": "decreasing interaction"}
    ]},
    {"variants_of": "B1", "details": "with pex3_human PEX3, P56589", "remark": "another data set of the same source", "values": [
      {"variant": "L18A", "effect of a mutation on the interaction": "disrupting interaction"}
    ]},
    {"variants_of": "B1", "details": "with pex3_human PEX3, P56589", "remark": "another data set of the same source", "values": [
      {"variant": "L18A", "effect of a mutation on the interaction": "decreasing interaction"}
    ]},
    {"variants_of": "B1", "details": "with pex3_human PEX3, P56589", "remark": "another data set of the same source", "values": [
      {"variant": "L22A", "effect of a mutation on the interaction": "disrupting interaction"}
    ]},
    {"variants_of": "B1", "details": "with pex3_human PEX3, P56589", "remark": "another data set of the same source", "values": [
      {"variant": "L26A", "effect of a mutation on the interaction": "decreasing interaction"}
    ]},
    {"variants_of": "B1", "details": "with pex3_human PEX3, P56589", "remark": "another data set of the same source", "values": [
      {"variant": "F29A", "effect of a mutation on the interaction": "disrupting interaction"}
    ]},
    {"variants_of": "B2", "details": "with abcd3_human ABCD3, P28288", "values": [
      {"variant": "F29A", "effect of a mutation on the interaction": "disrupting interaction"}
    ]},
    {"variants_of": "B2", "details": "with abcd3_human ABCD3, P28288", "remark": "another data set of the same source", "values": [
      {"variant": "L22A", "effect of a mutation on the interaction": "disrupting interaction"}
    ]}
  ]
}
